Data from the nanobody polyreactivity screen of Harvey et al. (2022).

Assay: yeast display, Sf9 membrane polyspecificity reagent, FACS + sequencing; frameworks hold sequencing errors
How it was run: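 Synthetic nanobody libraries on Saccharomyces cerevisiae BJ5465 were galactose-induced for 36–48 hours, stained 1 hour at 4 °C with 10% biotinylated, detergent-solubilized Sf9 membrane reagent and enriched on streptavidin microbeads. FACS then separated cells into low and high (top ~1%) gates by anti-HA (expression) and streptavidin (reagent binding) fluorescence. Genes were colony-PCR amplified, MiSeq 2 × 250 sequenced and CDR-length filtered. A clone's polyreactivity label is that of its gate of origin.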

Sequence | polyreactivity (PSR sort gate)
QVQLVESGGGLVQAGGSLRLSCAASGSIFRSNGMGWYREAPGKERELVAAITSSGGSTYYADTVKGRFTISRDNAKNTVYLHMNSLKPEDTAVYYCAKRWNWSYNYWGQGTQVTVSS | high polyreactivity
QVQLVESGGGLVQAGGSLRLSCAASGSIFRSYAMGWYRQAPGKEREFVAAISNGGRTSYADSVKGRFTISRDNAKYNVYLQMNSLKPEDTAVYDCNARYSRRAMGYWGQGTQVTVSS | high polyreactivity
QVQLVESGGGLVQAGGSLRLSCAASGSIFRSYAMGWYRQAPGKERELVAAIRGGGSTNYADSVKGRFTISRDNAKNTVYLQMNSLKPEDTAVYYFAADKKTKVDWGQGTQVTVSS | high polyreactivity
QVQLVESGGGLVQAGGSLRLSCAASGSIFRSYAMGWYRQAPGKERELVAAISRGGSTTYADSVKGRFTISRDNAKNTVYLQMNSLKPEDTAVYYCAVANVYYEGYDYWGQGTQVTVSS | low polyreactivity
QVQLVESGGGLVQAGGSLRLSCAASGSIFRSYAMGWYRQAPGKERELVAAISWRGGRTYYADSVKGRFTISRDNAKNTVYLQMNSLKPEDTAVYYCAVDFYVYRWSPYGDVYRYDYWGQGTQVTVSS | high polyreactivity
QVQLVESGGGLVQAGGSLRLSCAASGSIFRSYAMGWYRQAPGKERELVAAITSRGSSTYYADSVTGRFTISRDNAKNTVYLQMNSLKPEDSAVYYCATVFPYSARDGLDYWGQGTQVTVSS | high polyreactivity
QVQLVESGGGLVQAGGSLRLSCAASGSIFRSYAMGWYRQAPGKQREFVAAITGSGGRTYYADSVKGRFTISRDNAKNTVYLQMNCLKPEDTAVYYCAAALSRRYKSGGPYGFNYWGQGTQVTVSS | high polyreactivity
QVQLVESGGGLVQAGGSLRLSCAASGSIFRSYAMGWYRQAPGTERELVDGISYSGGSTYYADSVKGRFTISRDNAKNTVYLQMNSLKPEDTAVYYCNVDGGTYFFFVGAWGEYDYWGQGTQVTVSS | low polyreactivity
QVQLVESGGGLVQAGGSLRLSCAASGSIFRTNAMGWYRQAPGKERELVAAITGRGGSTYYADSVKGRFTISRNNAKNTVYLQMNSLKPEDTAVYDCAADTWYGYRYKYDYWGQGTQVTVSS | high polyreactivity
QVQLVESGGGLVQAGGSLRLSCAASGSIFRTNAMGWYRQAPGKERELVAAITTSGVTTYYADSVKGRFTISRDNPTNTVYLQMNSLKPEDTAVYYCNARDGRYLPRYDYWRQGTQVTVSS | low polyreactivity
QVQLVESGGGLVQAGGSLRLSCAASGSIFRTYAMGWYRQAPGKEREWVAAISSTGGRTYYADSVKGRFTISRDNAKNTVYLQMNSLKPEDTAVYYCAKRYRYITYRYDYWGQGTQVTVSS | high polyreactivity
QVQLVESGGGLVQAGGSLRLSCAASGSIFRTYAMGWYRQAPGKESELVAAISRSGSSTYYADSVKGRFTISRDNAKNTVYLQRTSLQPEDTAVYYCAAYWPLSYGARGSNYWGQGTQVTVSS | high polyreactivity
QVQLVESGGGLVQAGGSLRLSCAASGSIFRVNAMGWYRQAPGKERELVAAISCRGASTYYADSVKGRFTISRDNAKNTVYLQMNSLKPVDTAVYYCAAYGYSIGPYYYWGQGTQVTGSS | high polyreactivity
QVQLVESGGGLVQAGGSLRLSCAASGSIFRVNDMGWYRQAPGKERELVATISRSGAITYYADSVKGRFTISRDNAKNTVNLQMNSLKPEDNAVYYCAADFLSRDWGQGTQVTLSS | low polyreactivity
QVQLVESGGGLVQAGGSLRLSCAASGSIFRVYAMGWYRQAPGKERELVAAISRGGGTTYYADSVKGRFTISRDNAKNTVYLQMNRLKPEDTAVYYCASEYLGYYYQFDSWGQGTQVTVSS | high polyreactivity
QVQLVESGGGLVQAGGSLRLSCAASGSIFRVYAMGWYRQAPGKERELVAAITNGGNTNYADSVKGRFTISRDNAKNTVYLQMNSLKPEDTAVYYCAADPLRTPGARHTPYKGTYDYWGQGTQVTVSS | high polyreactivity

Sequence | polyreactivity (PSR sort gate)
QVQLVESGGGLVQAGGSLRLSCAASGSIFRVYAMGWYRQAPGKERELVAGISSRGGTSTYYADSVKGRFTISRDNAKNSVYLQMNSLNPEETAVYYCAVQVRYPGYDYWGQGTQVTVSS | low polyreactivity
QVQLVESGGGLVQAGGSLRLSCAASGSIFRWNAMGWSRQAPGKERELVAAITWDGGRTYYADSVKGRFTISRDNAKNTVYLQMNSLKPEDTAVYYCNADNARGRSGVRRYYWGQGTQVTVSS | high polyreactivity
QVQLVESGGGLVQAGGSLRLSCAASGSIFRWNAMGWYRQAPGKEREFVAAISGRGGSTYYADSVKGRFTISRDNAKNTVYLQMNSLKPEDTAVYYCAADQAHLATRGFDYWGQGTQVTVSS | high polyreactivity
QVQLVESGGGLVQAGGSLRLSCAASGSIFRWYAMGWYRQAPGKERELVAAITGSGGRTYYADSVKGRFTISRDNAKNTVYLQMNSLNPEDTAVYYCATRYGREDYWGQGTQVTVSS | high polyreactivity
QVQLVESGGGLVQAGGSLRLSCAASGSIFRYAMGWYRQAPGKERELVATISESGGRTYYADSVKGRFTISRDNANNTVYLQMNSLKPEDTAVYYCAADLKYYYGYRPWFQGGYWGQGTQVTVSS | low polyreactivity
QVQLVESGGGLVQAGGSLRLSCAASGSIFRYNAMGWYRQAPGKERELVAAISLNTGSTYYADSVKGRFTISRDNAKNTVYLQMNSLKPEDTAVYYCNADDYTYATYEYDYWGQGTQVTVSS | low polyreactivity
QVQLVESGGGLVQAGGSLRLSCAASGSIFRYNAMGWYRQAPGKERELVAAITWSGGSTYYADSVKGRFTISRDNAKNTVYLQMNSLKPEDTAVYYCAASPYPHYRRYTGGFYYWGQGTQVTVSS | high polyreactivity
QVQLVESGGGLVQAGGSLRLSCAASGSIFRYNAMGWYRQAPGKERELVAGISWSGGSTYYADSVKGRFTISRDNAKNTVYLQMNSLKPEDTAVYYCATRVGRYWTAGYYWGQGTQVTVSS | high polyreactivity
QVQLVESGGGLVQAGGSLRLSCAASGSIFRYNAMGWYRQAPGKERELVASINAGGGSTYYADSVKGRFTISRDNAKNTVYLLMNSLKPEDTAVYDCAAVAHSATRFRYYWRYDYWGQGTQVTVSS | high polyreactivity
QVQLVESGGGLVQAGGSLRLSCAASGSIFRYNTMGWYRQAPGKERELVASIRIGGSTFYADSVKGRFTISRDNAKNTVYLQMNSLKPEDTAVYYCAVRPYRSAGGSVTRGAYYYWGQGTQVTVSS | high polyreactivity
QVQLVESGGGLVQAGGSLRLSCAASGSIFRYYAMGWYIQAPGKERELVAVITRGGSTYYADSVKGRFTISRDNAKNTVYLQMNSLKPEDTAVYYCAADYWPAGLDRGYWGQGTQVTVSS | low polyreactivity
QVQLVESGGGLVQAGGSLRLSCAASGSIFRYYAMGWYRQAPGKERELVAAISIRGGRTYYADSVKGRFTISRDNAKNTVYLQMNSLKPEDTAVYYCATAFGFTAKYYYWGQGTQVTVSS | high polyreactivity
QVQLVESGGGLVQAGGSLRLSCAASGSIFRYYAMGWYRQAPGKERELVAAISQSGTSTYYADSVKGRFTISRDNAKNTVYLQMNSLKPEDTAVYYCAAYPYYDRDYWGQGTQVTVSS | low polyreactivity
QVQLVESGGGLVQAGGSLRLSCAASGSIFRYYAMGWYRQAPGKERELVAAISSRGGTTHYADSVKGRFTISRDNAKNTVYLQMNSLKPEDTAVYYCAADYYLATNPAPLAAGRGYWGQGTQVTVSS | high polyreactivity
QVQLVESGGGLVQAGGSLRLSCAASGSIFRYYAMGWYRQAPGKERELVAAISWDGGTTYYADSVKGRFTISRDNAKNTVYLQMNSLKPEDPAVYYCNVEFPLSSYGYDYWGQGTQVTVSS | low polyreactivity
